Results: PMC11187625, “New Labeled PET Analogues Enable the Functional Screening and Characterization of PET-Degrading Enzymes” (ACS Sustainable Chemistry & Engineering, 2024)

Key:
Test in all cases: fluorescence, 4-mU release
Conditions in all cases: 0.1 M phosphate pH 7, 30 °C, 5% DMSO
[1] = substrate: CCOCCOC(=O)c1ccc(C(=O)Oc2ccc3c(C)cc(=O)oc3c2)cc1; assay type: biochemical, unidentified prokaryotic organism
Description: (§1) fluorescence, 4-mU release on LCC^ICCG (leaf-branch compost cutinase ICCG variant)

[2] = substrate: COC(=O)c1ccc(C(=O)OCCOC(=O)c2ccc(C(=O)Oc3ccc4c(C)cc(=O)oc4c3)cc2)cc1; assay type: biochemical, unidentified prokaryotic organism
Description: as §1

[3] = substrate: COC(=O)c1ccc(C(=O)Oc2ccc3c(C)cc(=O)oc3c2)cc1; assay type: biochemical, unidentified prokaryotic organism
Description: as §1

[4] = substrate: CCOCCOC(=O)c1ccc(C(=O)Oc2ccc3c(C)cc(=O)oc3c2)cc1; assay type: biochemical, Pseudideonella sakaiensis
Description: (§2) fluorescence, 4-mU release on IsPETase

[5] = substrate: COC(=O)c1ccc(C(=O)OCCOC(=O)c2ccc(C(=O)Oc3ccc4c(C)cc(=O)oc4c3)cc2)cc1; assay type: biochemical, Pseudideonella sakaiensis
Description: as §2

[6] = substrate: COC(=O)c1ccc(C(=O)Oc2ccc3c(C)cc(=O)oc3c2)cc1; assay type: biochemical, Pseudideonella sakaiensis
Description: as §2

[7] = substrate: CCOCCOC(=O)c1ccc(C(=O)Oc2ccc3c(C)cc(=O)oc3c2)cc1; assay type: biochemical, Thermothelomyces thermophilus
Description: (§3) fluorescence, 4-mU release on StGE2 (glucuronoyl esterase)

[8] = substrate: COC(=O)c1ccc(C(=O)Oc2ccc3c(C)cc(=O)oc3c2)cc1; assay type: biochemical, Thermothelomyces thermophilus
Description: as §3

B1: LCC^ICCG (leaf-branch compost cutinase ICCG variant) (unidentified prokaryotic organism; D238C/F243I/S283C/Y127G) (protein)
chain: QSNPYQRGPNPTRSALTADGPFSVATYTVSRLSVSGFGGGVIYYPTGTSLTFGGIAMSPGYTADASSLAWLGRRLASHGFVVLVINTNSRFDGPDSRASQLSAALNYLRTSSPSAVRARLDANRLAVAGHSMGGGGTLRIAEQNPSLKAAVPLTPWHTDKTFNTSVPVLIVGAEADTVAPVSQHAIPFYQNLPSTTPKVYVELCNASHIAPNSNNAAISVYTISWMKLWVDNDTRYRQFLCNVNDPALCDFRTNNRHCQ
notes: recombinant engineered variant ICCG, pET-22b(+), E. coli BL21, intracellular fraction, purified
For B1, the Km [1] was 7.2 ± 0.7 µM, the kcat [1] was 5.8e-05 ± 2e-06 s⁻¹ and the Km [2] was 21.7 ± 2.8 µM. It also gave a kcat [2] of 1.3e-05 ± 1e-06 s⁻¹, a Km [3] of 1.6 ± 0.1 µM and a kcat [3] of 3.4e-05 ± 1e-06 s⁻¹.

B2: IsPETase (Pseudideonella sakaiensis) (protein)
chain: QTNPYARGPNPTAASLEASAGPFTVRSFTVSRPSGYGAGTVYYPTNAGGTVGAIAIVPGYTARQSSIKWWGPRLASHGFVVITIDTNSTLDQPSSRSSQQMAALRQVASLNGTSSSPIYGKVDTARMGVMGWSMGGGGSLISAANNPSLKAAAPQAPWDSSTNFSSVTVPTLIFACENDSIAPVNSSALPIYDSMSRNAKQFLEINGGSHSCANSGNSNQALIGKKGVAWMKRFMDNDTRYSTFACENPNSTRVSDFRTANCS
notes: recombinant, pET-22b(+), E. coli BL21, intracellular fraction, purified
B2 showed a Km [4] of 9.3 ± 0.8 µM, a kcat [4] of 3.8e-05 ± 1e-06 s⁻¹ and a Km [5] of 34.1 ± 5.5 µM. For the same protein, the Km [6] was 6.7 ± 0.6 µM and the kcat [6] was 5e-05 ± 2e-06 s⁻¹.

B3: StGE2 (glucuronoyl esterase) (Thermothelomyces thermophilus ATCC 42464) (protein)
chain: APMNHIFERQDTCSVSDNYPTVNSAKLPDPFTTASGEKVTTKDQFECRRAEINKILQQYELGEYPGPPDSVEASLSGNSITVRVTVGSKSISFSASIRKPSGAGPFPAIIGIGGASIPIPSNVATITFNNDEFGAQMGSGSRGQGKFYDLFGRDHSAGSLTAWAWGVDRLIDGLEQVGAQASGIDTKRLGVTGCSRNGKGAFITGALVDRIALTIPQESGAGGAACWRISDQQKAAGANIQTAAQIITENPWFSRNFDPHVNSITSVPQDHHLLAALIVPRGLAVFENNIDWLGPVSTTGCMAAGRLIYKAYGVPNNMGFSLVGGHNHCQFPSSQNQDLNSYINYFLLGQGSPSGVEHSDVNVNVAEWAPWGAGAPTLA
notes: recombinant, expressed in Komagataella phaffii (Pichia pastoris), purified
With B3 the Km [7] was 4.7 ± 0.4 µM and the Km [8] was 0.7 ± 0.1 µM.
